Data on 14 variants can be found in the supplement of paper PMC12783771.

First the molecules themselves.
B1: library; numbered along this chain (parent)
chain: MNIQIGELAKRTACPVVTIRFYEQEGLLPPPGRSRGNFRLYGEEHVERLQFIRHCRSLDMPLSDVRTLLSYRKRPDQDCGEVNMLLDEHIRQVESRIGALLELKHHLVELREACSGARPAQSCGILQGLSDCVCDTRGTTAHPSD

The variants in data set [1] derive from B1. Kind of data set: sfGFP reporter fluorescence (15 h) (µM FITC); higher = higher leak. The conditions noted are these: library round: Round 0; ligand: none. In a few lines:
(§1)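 Values are endpoint sfGFP fluorescence given as µM FITC equivalents. Fluorescence was read at 485/528 nm on a Synergy Neo2, and FITC standard curves were prepared in 50 mM sodium borate pH 8.5. Reactions of 1 μL combined BL21 Star (DE3) PANOx-SP extract, pPbrR-sfGFP reporter, 30 μg/mL GamS and linear PbrR templates (PCR-made, Echo-normalized to 5 nM), with 1 µM lead chloride, 30 µM zinc acetate or no metal, for 15 hr at 30 °C.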

Data set [2] covers variants of B1. The experiment in a line: sfGFP reporter fluorescence (15 h) (µM FITC); higher = stronger transcriptional activation. Particulars: library round: Round 0. Summed up: as §1

± gives the standard deviation of the averaged measurements.

In the case of MNIQIGELAKRTACPVVTIRFYEQEGLLPPPGRSRGNFRLYGEEHVERLQFIRHCRSLDMPLSDVRTPLSYRKRPDQDCGEVNMLLDEHIRQVESRIGALLELKHHLVELREACSGARPAQSCGILQGLSDCVCDTRGTTAHPSD, the results for the sfGFP reporter fluorescence in data set [1], in data set [2] (ligand: 1 µM Pb) and in data set [2] (ligand: 30 µM Zn) were 0.0632 ± 0.0029, 0.0583 ± 0.0015 and 0.0652 ± 0.0026, respectively.
In the case of MNIQIGELAKRTACPVVTIRFYEQEGLLPPPGRSRGNFRLYGEEHVERLQFIRHCRSLDMPLSDVRTILSYRKRPDQDCGEVNMLLDEHIRQVESRIGALLELKHHLVELREACSGARPAQSCGILQGLSDCVCDTRGTTAHPSD, the values for the sfGFP reporter fluorescence in data set [1], in data set [2] (ligand: 1 µM Pb) and in data set [2] (ligand: 30 µM Zn) were 0.0599 ± 0.0013, 0.059 ± 0.0021 and 0.214 ± 0.047, respectively.
For MNIQIGELAKRTACPVVTIRFYEQEGLLPPPGRSRGNFRLYGEEHVERLQFIRHCRSLDMPLSDVRTELSYRKRPDQDCGEVNMLLDEHIRQVESRIGALLELKHHLVELREACSGARPAQSCGILQGLSDCVCDTRGTTAHPSD, in that order: 0.0623 ± 0.00052, 0.05974 ± 0.00052 and 0.0652 ± 0.0015.
For MNIQIGELAKRTACPVVTIRFYEQEGLLPPPGRSRGNFRLYGEEHVERLQFIRHCRSLDMPLSDVRTHLSYRKRPDQDCGEVNMLLDEHIRQVESRIGALLELKHHLVELREACSGARPAQSCGILQGLSDCVCDTRGTTAHPSD, in that order: 0.0623 ± 0.0026, 0.0577 ± 0.0013 and 0.0795 ± 0.0015.
For MNIQIGELAKRTACPVVTIRFYEQEGLLPPPGRSRGNFRLYGEEHVERLQFIRHCRSLDMPLSDVRTFLSYRKRPDQDCGEVNMLLDEHIRQVESRIGALLELKHHLVELREACSGARPAQSCGILQGLSDCVCDTRGTTAHPSD, in that order: 0.07935 ± 0.00078, 0.166 ± 0.0029 and 1.42 ± 0.11.
Regarding MNIQIGELAKRTACPVVTIRFYEQEGLLPPPGRSRGNFRLYGEEHVERLQFIRHCRSLDMPLSDVRTSLSYRKRPDQDCGEVNMLLDEHIRQVESRIGALLELKHHLVELREACSGARPAQSCGILQGLSDCVCDTRGTTAHPSD, the sfGFP reporter fluorescence is 0.061 ± 0.0023 in data set [1], 0.05882 ± 0.00026 in data set [2] (ligand: 1 µM Pb) and 0.0636 ± 0.0039 in data set [2] (ligand: 30 µM Zn).
With MNIQIGELAKRTACPVVTIRFYEQEGLLPPPGRSRGNFRLYGEEHVERLQFIRHCRSLDMPLSDVRTDLSYRKRPDQDCGEVNMLLDEHIRQVESRIGALLELKHHLVELREACSGARPAQSCGILQGLSDCVCDTRGTTAHPSD, the sfGFP reporter fluorescence in data set [1] is 0.0619 ± 0.001; in data set [2] (ligand: 1 µM Pb), 0.061 ± 0.0013; in data set [2] (ligand: 30 µM Zn), 0.0636 ± 0.0023.
For MNIQIGELAKRTACPVVTIRFYEQEGLLPPPGRSRGNFRLYGEEHVERLQFIRHCRSLDMPLSDVRTKLSYRKRPDQDCGEVNMLLDEHIRQVESRIGALLELKHHLVELREACSGARPAQSCGILQGLSDCVCDTRGTTAHPSD the same measures were 0.0608 ± 0.0021, 0.0566 ± 0.0013 and 0.0638 ± 0.0036.
For MNIQIGELAKRTACPVVTIRFYEQEGLLPPPGRSRGNFRLYGEEHVERLQFIRHCRSLDMPLSDVRTGLSYRKRPDQDCGEVNMLLDEHIRQVESRIGALLELKHHLVELREACSGARPAQSCGILQGLSDCVCDTRGTTAHPSD, in that order: 0.06395 ± 0.00026, 0.05827 ± 0.00052 and 0.0656 ± 0.00052.
For MNIQIGELAKRTACPVVTIRFYEQEGLLPPPGRSRGNFRLYGEEHVERLQFIRHCRSLDMPLSDVRTRLSYRKRPDQDCGEVNMLLDEHIRQVESRIGALLELKHHLVELREACSGARPAQSCGILQGLSDCVCDTRGTTAHPSD, in that order: 0.06175 ± 0.00026, 0.0579 ± 0.001 and 0.0596 ± 0.0029.
Take MNIQIGELAKRTACPVVTIRFYEQEGLLPPPGRSRGNFRLYGEEHVERLQFIRHCRSLDMPLSDVRTTLSYRKRPDQDCGEVNMLLDEHIRQVESRIGALLELKHHLVELREACSGARPAQSCGILQGLSDCVCDTRGTTAHPSD: the sfGFP reporter fluorescence stood at 0.0612 ± 0.0015 in data set [1], 0.0605 ± 0.001 in data set [2] (ligand: 1 µM Pb) and 0.0717 ± 0.0013 in data set [2] (ligand: 30 µM Zn).
For MNIQIGELAKRTACPVVTIRFYEQEGLLPPPGRSRGNFRLYGEEHVERLQFIRHCRSLDMPLSDVRTQLSYRKRPDQDCGEVNMLLDEHIRQVESRIGALLELKHHLVELREACSGARPAQSCGILQGLSDCVCDTRGTTAHPSD, the sfGFP reporter fluorescence was 0.0603 ± 0.00078 in data set [1], 0.05736 ± 0.00026 in data set [2] (ligand: 1 µM Pb) and 0.0629 ± 0.0018 in data set [2] (ligand: 30 µM Zn).
For MNIQIGELAKRTACPVVTIRFYEQEGLLPPPGRSRGNFRLYGEEHVERLQFIRHCRSLDMPLSDVRTNLSYRKRPDQDCGEVNMLLDEHIRQVESRIGALLELKHHLVELREACSGARPAQSCGILQGLSDCVCDTRGTTAHPSD, in that order: 0.0588 ± 0.0013, 0.05992 ± 0.00026 and 0.0599 ± 0.0013.
For MNIQIGELAKRTACPVVTIRFYEQEGLLPPPGRSRGNFRLYGEEHVERLQFIRHCRSLDMPLSDVRTMLSYRKRPDQDCGEVNMLLDEHIRQVESRIGALLELKHHLVELREACSGARPAQSCGILQGLSDCVCDTRGTTAHPSD, the sfGFP reporter fluorescence in data set [1] was 0.0902 ± 0.0021; in data set [2] (ligand: 1 µM Pb), 0.2142 ± 0.0013; in data set [2] (ligand: 30 µM Zn), 1.42 ± 0.044.
